Where no end group is shown, it is not given here. [ ]: non-standard residue; d: D form. Lys(Me3) = C[N+](C)(C)CCCC[C@H](N)C(=O)O
T1: ADD domain of ATRX (ATRXADD) (UniProt P46100 159-296)
T1 construct: ATRX, N-terminal ADD (ATRX-DNMT3-DNMT3L) domain; plasmid pGEX-GP-2-ATRX ADD from Addgene; that it comes from the GST fusion and not from the His-tagged one is surmised; also called ATRX-DNMT3-DNMT3L domain; source: E. coli BL21, purified (spin column, on-column thrombin cleavage)
T1 sequence (looked up): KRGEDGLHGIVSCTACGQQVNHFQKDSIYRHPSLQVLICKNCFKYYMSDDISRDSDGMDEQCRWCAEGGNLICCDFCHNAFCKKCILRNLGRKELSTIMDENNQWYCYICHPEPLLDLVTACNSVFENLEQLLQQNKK

B1: H3_(1-16) peptide (peptide)
peptide: ARTKQTARKSTGGKAY
notes: histone H3 tail; source: bought: GenScript
B2: H3_(1-10) peptide (peptide)
peptide: ARTKQTARKS
notes: as for B1
B3: H3_(1-11)K9me3 peptide (peptide)
peptide: ARTKQTARKST
modifications: trimethyl-lysine at 9, printed K(me3)
notes: as for B1
B4: H3_(1-11) A1L peptide (peptide)
peptide: LRTKQTAR[Lys(Me3)]ST
notes: histone H3 tail with A1 replaced; source: bought: GenScript
B5: H3_(1-11) A1V peptide (peptide)
peptide: VRTKQTAR[Lys(Me3)]ST
notes: as for B4
B6: H3_(1-11)K4me3K9me3 peptide (peptide)
peptide: ART[Lys(Me3)]QTAR[Lys(Me3)]ST
notes: as for B1

Biological target: T1, ADD domain of ATRX (ATRXADD)
Assay: fluorescence polarisation; competition: ATRXADD (5 μM) and H3_(1-15)K9me3-FAM (0.75 μM) incubated 15 minutes at room temperature, then unlabeled peptide at varying concentrations; PBS; 384-well plate
Details: both partners purified

B1 and B2 are within error of each other in IC50: 85.8 ± 19.3 µM for the first, 94.8 ± 4.6 µM for the second.

Compared with B3, B4 is 1.5-fold lower in IC50: 7.6 ± 1.4 µM for the first, 5.05 ± 0.7 µM for the second.

Compared with B5, B6 is higher in IC50: 4.3 ± 0.8 µM for the first, no less than 100 µM for the second.

Reference: PMC7181051, “Probing the Protein-Protein Interaction between the ATRXADD Domain and the Histone H3 Tail” (Molecules, 2020)
